How the values were obtained:
human CD44 (human) [1] = biological target: human CD44 (human) (UniProt P16070); test: flow cytometry, Alexa647-RG7356 on CD19+ normal B cells of healthy adults (n=8)
human CD44 (human) [2] = biological target: human CD44 (human) (UniProt P16070); test: flow cytometry, Alexa647-RG7356 on CLL B cells with ZAP-70 expression
human CD44 (human) [3] = biological target: human CD44 (human) (UniProt P16070); test: flow cytometry, Alexa647-RG7356 on CLL B cells with unmutated IGVH gene
human CD44 (human) [4] = biological target: human CD44 (human) (UniProt P16070); test: flow cytometry, Alexa647-RG7356 on CLL B cells with low or no ZAP-70 expression
human CD44 (human) [5] = biological target: human CD44 (human) (UniProt P16070); test: cell-based or functional assay
human CD44 (human) [6] = biological target: human CD44 (human) (UniProt P16070); test: flow cytometry, Alexa647-RG7356 on CLL B cells with mutated IGVH gene
human CD44 (human) [7] = biological target: human CD44 (human) (UniProt P16070); test: flow cytometry, Alexa647-RG7356 on CD19+CD5+ CLL B cells (n=59)

median MFIR (MFI of CD44 mAb divided by MFI of control mAb) (human CD44 (human) [1]): 112
median MFIR (MFI of CD44 mAb divided by MFI of control mAb) (human CD44 (human) [2]): 161
median MFIR (MFI of CD44 mAb divided by MFI of control mAb) (human CD44 (human) [3]): 161
median MFIR (MFI of CD44 mAb divided by MFI of control mAb) (human CD44 (human) [4]): 119
internalization of cell surface CD44 (reduction of MFI of Alexa647-conjugated RG7356 on CLL cells at 37 C, flow cytometry) (human CD44 (human) [5]): > 40%
median MFIR (MFI of CD44 mAb divided by MFI of control mAb) (human CD44 (human) [6]): 118
median MFIR (MFI of CD44 mAb divided by MFI of control mAb) (human CD44 (human) [7]): 132
Substance: humanized anti-CD44 monoclonal antibody (RG7356, Roche)

Source: patent US20140308301A1
